The target in test [1] is T1, Human complement protein C5 (human, UniProt P01031 19-673; P01031 678-1676).
Test [2] concerns the target T1, Human complement protein C5. The test is described as follows: cell-based or functional assay.

T1 sequence (P01031 19-673, chain 1 of 2): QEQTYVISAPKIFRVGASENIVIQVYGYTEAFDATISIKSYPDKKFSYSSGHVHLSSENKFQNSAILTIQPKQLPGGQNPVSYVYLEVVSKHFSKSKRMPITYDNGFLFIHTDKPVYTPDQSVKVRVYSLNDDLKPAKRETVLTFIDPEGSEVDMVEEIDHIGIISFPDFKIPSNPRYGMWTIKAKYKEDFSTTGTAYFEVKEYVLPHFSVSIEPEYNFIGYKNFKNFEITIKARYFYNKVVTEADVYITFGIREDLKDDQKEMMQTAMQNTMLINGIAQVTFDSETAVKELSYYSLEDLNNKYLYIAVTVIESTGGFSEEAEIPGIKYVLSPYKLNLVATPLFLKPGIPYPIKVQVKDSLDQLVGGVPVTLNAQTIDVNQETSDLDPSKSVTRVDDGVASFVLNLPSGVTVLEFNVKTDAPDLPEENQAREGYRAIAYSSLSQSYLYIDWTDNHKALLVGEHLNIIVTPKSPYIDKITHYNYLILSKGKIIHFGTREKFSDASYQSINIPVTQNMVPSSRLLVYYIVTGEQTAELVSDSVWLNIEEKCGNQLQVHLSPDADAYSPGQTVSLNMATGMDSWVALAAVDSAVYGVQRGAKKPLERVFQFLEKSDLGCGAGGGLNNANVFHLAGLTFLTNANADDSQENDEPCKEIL
T1 sequence (P01031 678-1676, chain 2 of 2): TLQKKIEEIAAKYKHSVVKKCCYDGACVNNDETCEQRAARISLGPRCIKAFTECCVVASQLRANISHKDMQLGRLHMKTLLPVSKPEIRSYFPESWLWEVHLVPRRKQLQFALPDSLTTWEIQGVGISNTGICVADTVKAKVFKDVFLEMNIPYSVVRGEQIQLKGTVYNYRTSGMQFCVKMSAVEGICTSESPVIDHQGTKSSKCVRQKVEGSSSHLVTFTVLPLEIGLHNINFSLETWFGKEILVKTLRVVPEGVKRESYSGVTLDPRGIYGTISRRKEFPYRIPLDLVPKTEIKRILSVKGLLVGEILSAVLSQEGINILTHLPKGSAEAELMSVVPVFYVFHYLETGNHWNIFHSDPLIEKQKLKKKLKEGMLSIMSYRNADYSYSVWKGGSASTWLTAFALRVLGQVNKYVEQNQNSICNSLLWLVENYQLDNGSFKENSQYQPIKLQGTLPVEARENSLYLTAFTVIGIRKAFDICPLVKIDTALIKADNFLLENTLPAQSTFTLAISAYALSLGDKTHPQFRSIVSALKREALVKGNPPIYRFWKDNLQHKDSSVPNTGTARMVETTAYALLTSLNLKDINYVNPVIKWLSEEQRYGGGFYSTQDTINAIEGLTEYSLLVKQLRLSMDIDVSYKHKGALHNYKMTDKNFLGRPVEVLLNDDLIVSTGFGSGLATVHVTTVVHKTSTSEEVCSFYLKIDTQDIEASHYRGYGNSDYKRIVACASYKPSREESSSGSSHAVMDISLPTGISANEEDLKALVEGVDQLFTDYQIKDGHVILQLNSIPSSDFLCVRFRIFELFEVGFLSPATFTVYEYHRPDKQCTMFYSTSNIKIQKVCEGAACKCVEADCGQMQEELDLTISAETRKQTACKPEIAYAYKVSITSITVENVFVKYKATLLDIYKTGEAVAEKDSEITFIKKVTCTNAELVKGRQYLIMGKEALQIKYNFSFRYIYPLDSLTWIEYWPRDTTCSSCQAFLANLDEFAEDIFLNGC

B1: Ornithodoros moubata Complement Inhibitor with a His6 tag in the C-terminus (other)
chain: MDSESDCTGSEPVDAFQAFSEGKEAYVLVRSTDPKARDCLKGEPAGEKQDNTLPVMMTFKNGTDWASTDWTFTLDGAKVTATLGNLTQNREVVYDSQSHHCHVDKVEKEVPDYEMWMLDAGGLEVEVECCRQKLEELASGRNQMYPHLKDCGGGGSENLYFQGSHHHHHH
Broadly, the IC50 is the concentration that gives 50% inhibition. A lower IC50 goes with higher potency. B1 gave an IC50 in test [1] of 1.5 nM. Besides, the “IC50 of inhibition of hemolysis of antibody sensitized sheep erythrocytes” value in test [2] lay in the range of 0.3 to 0.5 nM.

The values are drawn from patent publication US20190167760A1 (SWEDISH ORPHAN BIOVITRUM AB PUBL, published 2019).
